16 molecules from US20240092930A1 (MABWELL SHANGHAI BIOSCIENCE, published 2024) can be followed below.

Positions count from the first letter of the chain named.

T1: human Trop-2 on the surface of cells (CHO/Trop-2 cells; BxPC-3 cells; NCI-N87 cells) (human, UniProt P09758 27-323)
T1 sequence (looked up): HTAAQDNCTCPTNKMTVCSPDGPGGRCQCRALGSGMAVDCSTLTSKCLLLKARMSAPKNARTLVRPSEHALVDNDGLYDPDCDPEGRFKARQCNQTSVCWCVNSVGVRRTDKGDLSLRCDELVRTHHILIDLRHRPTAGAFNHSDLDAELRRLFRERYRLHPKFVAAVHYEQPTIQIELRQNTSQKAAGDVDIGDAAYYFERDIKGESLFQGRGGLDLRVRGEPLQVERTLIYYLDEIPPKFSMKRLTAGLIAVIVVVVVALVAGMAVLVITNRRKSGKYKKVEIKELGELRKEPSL

T2: recombinant human Trop-2-his protein (ACCESSION NO.: NP_002344.2, AA 1-274) (human, UniProt P09758 27-274)
T2 construct: range 27-274; also called recombinant human Trop-2 protein; recombinant human Trop-2 extracellular domain; not shown: his tag
T2 sequence (looked up): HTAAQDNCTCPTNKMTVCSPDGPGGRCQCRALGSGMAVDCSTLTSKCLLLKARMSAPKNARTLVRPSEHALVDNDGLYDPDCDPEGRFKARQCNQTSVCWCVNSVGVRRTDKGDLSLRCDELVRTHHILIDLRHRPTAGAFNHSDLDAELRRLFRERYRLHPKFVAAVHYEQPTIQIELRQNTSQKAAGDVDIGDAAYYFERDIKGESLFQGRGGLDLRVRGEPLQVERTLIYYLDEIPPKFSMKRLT

B1: chimeric antibody ch23-12 (antibody, human IgG1, V domains shown)
VH: QVQLQQPGAELVKPGASVKLSCKADGYIFTSYWMHWVKQRPGQGLEWIGEITPSDNYTSYNQKFKGKATLTVDKSSSTAYMQLSSLTSEDSAVYYCTRGHGNYVSFDYWGQGTTLTVSS
VL: DIQMTQITSSLSASLGDRVTITCRASQDISNYLNWYQQKPDGTVKLLIYYTSRLHSGVPSRFSGSGSGTDYSLTISNLEQEDIATYFCQQGYTLPPYTFGGGTKLEIK
B2: chimeric antibody ch3-11 (antibody, human IgG1, V domains shown)
VH: QVQLQQPGAELVKPGSSVKLSCKASGYTFTSYWMYWVKQRPGQGLEWIGEINPSNGRTNYNEKFKSKATLTVDKSSSTAYMQFSSLTSEDSAVYYCTREGHNYDGSLGAMDHWGQGTSVTVSS
VL: DVVVTQTPLSLPVSFGDQVSISCRSSQSLTNSYGNTFLSWYLHKPGQSPQLLLYGISNRFSGVPDRFSGSGSGTDFTLKINTIKPEDLGMYYCFQSTHQPYTFGGGTKLEIK
B3: chimeric antibody ch17-1 (antibody, human IgG1, V domains shown)
VH: EVKLVESGGVLVKPGGSLKLSCAASGFTFSDSAMSWVRQTPEKRLEWVASISRGDDTYYPDSVKGRITISRDFARNILYLQMTSLRSEDTAMYYCTRDRFGFAYWGQGTLVTVSA
VL: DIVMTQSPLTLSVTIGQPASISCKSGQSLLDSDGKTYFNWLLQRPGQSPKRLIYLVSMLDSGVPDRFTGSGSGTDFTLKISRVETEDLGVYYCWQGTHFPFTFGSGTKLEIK
B4: h11-4-8 (antibody, human IgG1, kappa, name in Kabat numbering, V domains shown)
VH: EVQLVQSGAEVKKPGASVKVSCKASGYTFTSYWINWVRQAPGQGLEWMGNIYPSNSYTNYNQKFKDRVTMTRDTSTSTVYMELSSLRSEDTAVYYCSSYRSDGFAYWGQGTLVTVSS
VL: EIVLTQSPATLSLSPGERATLSCRASQNIGTSIHWYQQKPGQAPRLLIEFASESISGIPARFSGSGSGTDFTLTISSLEPEDFAVYYCQQSNSWPFTFGGGTKVEIKR
B5: h11-4-18 (antibody, human IgG1, kappa, name in Kabat numbering, V domains shown)
VH: B4 VH with D102E
VL: B4 VL with H34A
B6: h11-4-9 (antibody, human IgG1, kappa, name in Kabat numbering, V domains shown)
VH: B4 VH
VL: B4 VL with H34E
B7: h11-4-14 (antibody, human IgG1, kappa, name in Kabat numbering, V domains shown)
VH: B4 VH with D102E
VL: B4 VL with H34S
B8: h11-4-15 (antibody, human IgG1, kappa, name in Kabat numbering, V domains shown)
VH: B4 VH with D102G
VL: B4 VL with H34S
B9: h11-4-11 (antibody, human IgG1, kappa, name in Kabat numbering, V domains shown)
VH: B4 VH with D102G
VL: B4 VL with H34E
B10: h11-4-20 (antibody, human IgG1, kappa, name in Kabat numbering, V domains shown)
VH: B4 VH with G103A
VL: B4 VL with H34A
B11: h11-4-16 (antibody, human IgG1, kappa, name in Kabat numbering, V domains shown)
VH: B4 VH with G103A
VL: B4 VL with H34S
B12: h11-4-17 (antibody, human IgG1, kappa, name in Kabat numbering, V domains shown)
VH: B4 VH
VL: B4 VL with H34A
B13: h11-4-12 (antibody, human IgG1, kappa, name in Kabat numbering, V domains shown)
VH: B4 VH with G103A
VL: B4 VL with H34E
B14: h11-4-19 (antibody, human IgG1, kappa, name in Kabat numbering, V domains shown)
VH: B4 VH with D102G
VL: B4 VL with H34A
B15: h11-4-13 (antibody, human IgG1, kappa, name in Kabat numbering, V domains shown)
VH: B4 VH
VL: B4 VL with H34S
B16: h11-4-10 (antibody, human IgG1, kappa, name in Kabat numbering, V domains shown)
VH: B4 VH with D102E
VL: B4 VL with H34E

In one assay the target is T1, human Trop-2 on the surface of cells …. Description: cell-based or functional assay.
With B1, the “Internalization percentage (%), 1 h, BxPC-3 cells, FACS” value stood at 16.2%; the “Internalization percentage (%), 3 h, BxPC-3 cells, FACS” value was found to be 21.1%; the “Internalization percentage (%), 5 h, BxPC-3 cells, FACS” value turned out to be 27.1%.
On the same counts, the results for B2 are 1.12%, -5.13% and -8.48%.

For a further assay, the target named is T2, recombinant human Trop-2-his protein …. Description: ELISA, coated Trop-2-his 0.2 µg/ml. How it is done: Plates were coated with recombinant human Trop-2-his protein (ACCESSION NO.: NP_002344.2, AA 1-274) at a concentration of 0.2 μg/ml overnight at 4° C. and then blocked with 5% BSA for 60 min in a constant temperature incubator at 37° C. Chimeric antibodies ch3-11, ch4-3, ch17-1, ch11-4, and ch23-12 and control antibody Sacituzumab (serial dilutions of 8 concentrations in total obtained through 3-fold serially diluting a solution with an initial concentration of 2 μg/ml) were added into the plates which were then incubated in a constant temperature incubator at 37° C. for 60 min. The plates were washed with PBST 4 times, and 1:5000 dilution of HRP-anti-human Fc (Cat.: 109-035-098, Jackson ImmunoResearch) was added into the plates for reaction for 45 min. TMB (Cat.: ME142, GalaxyBio, Beijing) substrate was added for color development for 15 min, and then 2M HCl was added to stop reaction. Absorbances at 450 nm and at 630 nm (as reference wavelength) were read, and A450 nm-630 nm values of the wells in the plates were recorded.
With B3, the EC50 worked out at 328 pM.
On the same count and under the same terms, to B1 belongs 458 pM.
As for B2, the EC50 was 315 pM.

For a further assay the target is unchanged. Description: BLI, antibody on AHC sensor, Trop-2-his 60 nM. How it is done: (§1) 5-6 days after cell transfection, culture supernatants were purified through ProA affinity chromatography column to obtain different humanized antibodies. Affinities of the obtained antibodies were determined by an assay including capturing Fc fragments of the antibodies with anti-human IgG Fc capture (AHC) biosensors using Octet QKe system instrument from Fortebio. For the assay, each of the humanized antibodies and control antibody Sacituzumab was diluted to 4 μg/ml in PBS, and was allowed to flow through the surface of an AHC biosensor (Cat.: 18-0015, PALL) for 120 s. Recombinant human Trop-2-his protein (ACCESSION NO.: NP_002344.2, AA 1-274) was used as a mobile phase, and its concentration was 60 nM. The binding time was 100 s and the dissociation time was 300 s. When the assay was finished, data from which the response values of blank control had been deducted were fitted to a 1:1 Langmuir binding model using software, and then kinetic constants for antigen-antibody binding were calculated.
Affinities of the antibodies obtained from the combinations of mutants of murine antibody 11-4, chimeric antibody ch11-4 and control antibody Sacituzumab to recombinant human Trop-2-his protein were determined by ForteBio (Table 11).
Regarding B4, the Kd is 222 pM.
On to B5, for which the Kd is 394 pM.
Turning to B6, the Kd was 301 pM.
With B7, the Kd came to 352 pM.
B8: the Kd is 389 pM.
For the molecule B9, the Kd came out at 375 pM.
Regarding B10, the Kd stood at 210 pM.
On the same count and under the same terms, to B11 belongs 231 pM.
For the molecule B12, the Kd came out at 238 pM.
In the case of B13, the Kd was determined as 282 pM.
B14: the Kd amounted to 254 pM.
On the same count and under the same terms, to B15 belongs 211 pM.
Take B16: the Kd came to 351 pM.

The next assay shares this target. Description: BLI, antibody on AHC sensor, Trop-2-his 60 nM. This is another data set of the same source. On the procedure:
as §1
Affinities of the antibodies obtained from the combinations of mutants of murine antibody 23-12, chimeric antibody ch23-12 and control antibody Sacituzumab to recombinant human Trop-2-his protein were determined by ForteBijo (Table 5).
On to B1, for which the Kd came out at 715 pM.

In the next assay the target is T1, human Trop-2 on the surface of cells …. Description: FACS, CHO/Trop-2 cells. How it is done:
Suspensions of CHO cells recombinantly expressing human Trop-2 (CHO/Trop-2 cells) were incubated with chimeric antibodies ch3-11, ch4-3, ch17-1, ch11-4, and ch23-12 (dilutions at concentrations of 30 μg/ml and 10 μg/ml, and serial dilutions of 9 concentrations obtained through 3-fold serially diluting a solution with an initial concentration of 5 μg/ml, 11 concentrations in total) for 30 min at 37° C. Controls as follows were set: (1) Positive Control (PC): control antibody Sacituzumab; (2) Negative Control (NC): IgG1 isotype control antibody NC-IgG1. The cells were washed 3 times with PBS, and 1:100 dilution of goat anti-human IgG-FITC (Cat.: F9512, Sigma) was added into the cell which then were incubated for 30 min. Then the cells were washed 3 times with PBS again, and the Mean Fluorescence Intensity (MFI) of the cells was measured by a flow cytometer (model B49007AD, SNAW31211, BECKMAN COULTER) to detect binding ability of the chimeric antibodies to human Trop-2 on the surface of CHO cells.
As to B3, the response was half-maximal at 2920 pM (EC50).
Still for that read-out and setting: to B1 belongs 2750 pM; to B2, 993 pM.
